{
  "source": "patent US20250222068A1",
  "about": "“COMPOSITION FOR PREVENTING OR TREATING LUPUS COMPRISING RECOMBINANT STABILIZED GALECTIN-9 PROTEIN” (GBIOLOGICS INC., priority 2022, published 2025)",
  "key": {"[1]": {"system": "MRL/FAS^lpr mice", "test": "Spleen weight in an in vivo model of systemic lupus erythematosus", "details": "sGal-9 2 mg/kg SC once per week, 9 weeks, FIG. 5", "description": "Additionally, after the completion of the experiment, the experimental animals from <1-1> were sacrificed, and the spleens were extracted for weight measurement."}, "[2]": {"system": "MRL/FAS^lpr mice", "test": "IgG immunofluorescence staining of renal tissue", "type": "in vivo", "details": "9 weeks, FIG. 7", "description": "Additionally, the collected kidney tissues were frozen, sectioned at a thickness of 4 μm, and fixed in cold acetone for 5 minutes, followed by two washes with phosphate-buffered saline (PBS) for 5 minutes each. To eliminate non-specific reactions, blocking was performed for 30 minutes using a PBS solution containing 1% bovine serum albumin and 0.05% Tween-20. The sections were then incubated at room temperature for 1 hour with FITC-conjugated goat anti-mouse IgG antibody (1:200, AP308F, Merck Millipore). After three washes with PBS for 5 minutes each, nuclear staining was performed using DAPI, and the sections were covered with a cover glass using mounting medium. The samples were then examined using a confocal laser scanning microscope (C2 Plus, Nikon). […] Furthermore, it was confirmed that the glomerular lesion scores decreased in the positive control group (Mycophenolate) and the sGal-9 treatment groups (sGal-9 2 mg/kg and sGal-9 4 mg/kg) compared to the negative control group (Vehicle)."}, "[3]": {"system": "MRL/FAS^lpr mice", "test": "Clinical indicators (skin, lymphadenopathy, proteinuria scores) in an in vivo model of systemic lupus erythematosus", "details": "9 weeks; for reduction in skin lesions compared to positive control (Mycophenolate) / skin lesions (skin score) compared to negative control (Vehicle): FIG. 2; for inhibitory effect on lymphadenopathy compared to positive control (Mycophenolate) / lymphadenopathy score compared to negative control (Vehicle): FIG. 3; for proteinuria compared to negative control (Vehicle): FIG. 4", "description": "Specifically, the occurrence and severity of lupus were regularly observed from group allocation to the end of the experiment in the experimental animals from <1-1> and evaluated according to the criteria shown in [Table 2]."}, "[4]": {"system": "MRL/FAS^lpr mice", "test": "Histomorphological evaluation of renal tissue (H&E staining)", "type": "in vivo", "details": "9 weeks, FIG. 6; for inflammatory cell infiltration within the glomeruli: H&E", "description": "Specifically, after the completion of the experiment, the experimental animals of <1-1> were sacrificed, and renal tissues were collected. The collected renal tissues were fixed and dehydrated in 10% formaldehyde and subsequently embedded in paraffin. The fixed renal tissues were sectioned to a thickness of 2 μm and stained with hematoxylin and eosin (H&E). The sectioned tissues were covered with a coverslip and observed under an optical microscope at 400× magnification. Four regions were imaged for each tissue, and two or more researchers assigned scores based on the evaluation items and criteria for histomorphological assessment shown in [Table 3]. The average of the researchers' scores was determined as the scoring value, and the mean of the scoring values for the four regions was calculated as the final score for each tissue."}, "[5]": {"system": "anti-dsDNA antibodies", "test": "Plasma anti-dsDNA antibody levels (ELISA) in an in vivo model of systemic lupus erythematosus", "design": "species or system mice", "details": "9 weeks, FIG. 8", "description": "Anti-dsDNA antibodies are a type of antinuclear antibody (ANA) that target intracellular nuclear components and are present at high titers in systemic lupus erythematosus (SLE). These antibodies are associated with the persistent progression of kidney inflammation and damage.\nSpecifically, after the completion of the experiment, cardiac blood collection was performed on the experimental animals from <1-1>. The collected blood was allowed to coagulate for 30 minutes using a capillary blood collection tube (Cat. 365967, BD) and then centrifuged at 6,000×g for 10 minutes to obtain plasma. The obtained plasma was diluted at a ratio of 1:2,500, and the concentration of anti-dsDNA antibodies was measured using a Mouse Anti-dsDNA IgG Antibody ELISA Kit (Cat. 3031, Chondrex) according to the manufacturer's protocol."}, "[6]": {"details": "sGal-9 2 mg/kg SC once per week"}, "[7]": {"details": "sGal-9 4 mg/kg SC once per week"}},
  "data": [
    {"molecule": "sGal-9: recombinant stabilized galectin-9 protein of Sequence No. 1: linker entirely deleted, CCRD positions 1 to 10 deleted, alanine 13 substituted with proline (protein, sGal-9) MAFSGSQAPYLSPAVPFSGTIQGGLQDGLQITVNGTVLSSSGTRFAVNFQTGFSGNDIAFHFNPRFEDGGYVVCNTRQNGSWGPEERKTHMPFQKGMPFDLCFLVQSSDFKVMVNGILFVQYFHRVPFHRVDTISVNGSVQLSYISFQHPPYPMPFITTILGGLYPSKSILLSGTVLPSAQRFHINLCSGNHIAFHLNPRFDENAVVRNTQIDNSWGSEERSLPRKMPFVRGQSFSVWILCEAHCLKVAVDGQHLFEYYHRLRNLPTINRLEVGGDIQLTHVQT", "values": [
      {"measurement": "spleen weight compared to negative control (Vehicle)", "setting": "[1]", "result": "decreased"},
      {"measurement": "IgG deposition in the kidney compared to negative control (Vehicle)", "setting": "[2]; [6]", "result": "decreased"},
      {"measurement": "IgG deposition in the kidney compared to negative control (Vehicle)", "setting": "[2]; [7]", "result": "decreased"},
      {"measurement": "reduction in skin lesions compared to positive control (Mycophenolate)", "setting": "[3]; [6]", "result": "more pronounced"},
      {"measurement": "skin lesions (skin score) compared to negative control (Vehicle)", "setting": "[3]; [6]", "result": "reduced"},
      {"measurement": "inhibitory effect on lymphadenopathy compared to positive control (Mycophenolate)", "setting": "[3]; [6]", "result": "more pronounced"},
      {"measurement": "lymphadenopathy score compared to negative control (Vehicle)", "setting": "[3]; [6]", "result": "decreased"},
      {"measurement": "proteinuria compared to negative control (Vehicle)", "setting": "[3]; [6]", "result": "decreased"},
      {"measurement": "reduction in skin lesions compared to positive control (Mycophenolate)", "setting": "[3]; [7]", "result": "more pronounced"},
      {"measurement": "skin lesions (skin score) compared to negative control (Vehicle)", "setting": "[3]; [7]", "result": "reduced"},
      {"measurement": "inhibitory effect on lymphadenopathy compared to positive control (Mycophenolate)", "setting": "[3]; [7]", "result": "more pronounced"},
      {"measurement": "lymphadenopathy score compared to negative control (Vehicle)", "setting": "[3]; [7]", "result": "decreased"},
      {"measurement": "proteinuria compared to negative control (Vehicle)", "setting": "[3]; [7]", "result": "decreased"},
      {"measurement": "glomerular lesion scores compared to negative control (Vehicle)", "setting": "[4]; [6]", "result": "decreased"},
      {"measurement": "inflammatory cell infiltration within the glomeruli", "setting": "[4]; [6]", "result": "reduction"},
      {"measurement": "glomerular lesion scores compared to negative control (Vehicle)", "setting": "[4]; [7]", "result": "decreased"},
      {"measurement": "inflammatory cell infiltration within the glomeruli", "setting": "[4]; [7]", "result": "reduction"},
      {"measurement": "concentration of anti-dsDNA antibodies in plasma compared to negative control (Vehicle)", "setting": "[5]; [6]", "result": "decreased"},
      {"measurement": "concentration of anti-dsDNA antibodies in plasma compared to negative control (Vehicle)", "setting": "[5]; [7]", "result": "decreased"},
      {"measurement": "reduction in anti-dsDNA antibody levels compared to positive control (Mycophenolate)", "setting": "[5]; [7]", "result": "superior reduction"}
    ]}
  ]
}
